Here are results for four molecules from patent US20170107294A1, “ANTI-CD14 ANTIBODIES AND USES THEREOF” (Nordlandssykehuset HF, priority 2014, published 2017).

In one series the test system is porcine whole blood. Description: rMil2 combined with C5 inhibitor OmCI: cytokine production in porcine whole blood ex vivo. In kind it is cell-based. Conditions: E. coli-incubated porcine whole blood. The method, then:
(§1) The whole blood model has been described in detail previously (36). Fresh human venous or porcine arterial blood was drawn directly into tubes containing the anticoagulant lepirudin (Pharmion) at a final concentration of 50 mg/ml. In 1.8-ml Cryo Tube vials (Nunc, Roskilde, Denmark), the blood was preincubated with up to 20 mg/ml anti-human CD14 (r18D11 or 18D11), or 50 mg/ml anti-porcine CD14 (rMil2 or Mil2) at 37° C. for 10 min prior to an additional 2-h incubation in the presence of 100 ng/ml ultrapure LPS from Escherichia coli 0111:B4 (InvivoGen, San Diego, Calif.) for human blood or 1 3 105/ml heat-inactivated E. coli (strain LE392, ATCC33572) for porcine blood. As negative controls, PBS with MgCl2 and CaCl2 (Sigma-Aldrich) and isotype controls were used. Adverse effects were tested using nonactivated whole blood samples. After the addition of 10 mM (human) or 20 mM (porcine) EDTA, plasma was gained by 15 min centrifugation at 3220 3 g and 4° C. Levels of TNF, IL-6, and IL-1b in human plasma were determined using Bioplex technology (Bio-Rad Laboratories AB). Levels of TNF, IL-1b, and IL-8 in porcine plasma were determined using ELISA (Quantikine, R&D Systems, Minneapolis, Minn.). Platelet count was quantified by impedance using a CELL-DYN Sapphire hematology analyzer (Abbott Laboratories, Abbott Park, Ill.).
Whole blood was incubated with 1 3 106 E. coli per milliliter for 2 h at 37° C. in the absence or presence of inhibitors and controls. TNF, IL-1b, and IL-8 blood was analyzed as described above.

A further series deals with complement activation. Conditions: pigs; cited from earlier work.
Series [1] has as its system human whole blood. Briefly: Unwanted effects (complement activation, oxidative burst) in nonstimulated human whole blood. Conditions: 10 mg/ml Ab; for complement activation: not shown; for monocyte oxidative burst: flow cytometry. In kind it is cell-based. The method, then:
as §1
For orientation: In flow cytometry, cells or beads pass a laser one at a time.

For series [2], the system named is human whole blood. Briefly: Whole blood ex vivo model of inflammation, LPS-induced cytokine release in human blood. In kind it is cell-based. Also on record: Ab concentration at which maximum inhibitory effects were reached: unit not given here. Conditions: for E. coli ultrapure LPS-induced release of IL-1b, TNF and IL-6: 100 ng/ml LPS, dose-dependent; for Ab concentration at which maximum inhibitory effects were reached: LPS-induced IL-1b, TNF, IL-6 release. The method, then:
as §1

In the next series the target is T1, human CD14 (Homo sapiens, UniProt P08571).
T1 construct: endogenous in cells; host or cells: monocytes in fresh human whole blood (lepirudin)
T1 sequence (P08571 20-345): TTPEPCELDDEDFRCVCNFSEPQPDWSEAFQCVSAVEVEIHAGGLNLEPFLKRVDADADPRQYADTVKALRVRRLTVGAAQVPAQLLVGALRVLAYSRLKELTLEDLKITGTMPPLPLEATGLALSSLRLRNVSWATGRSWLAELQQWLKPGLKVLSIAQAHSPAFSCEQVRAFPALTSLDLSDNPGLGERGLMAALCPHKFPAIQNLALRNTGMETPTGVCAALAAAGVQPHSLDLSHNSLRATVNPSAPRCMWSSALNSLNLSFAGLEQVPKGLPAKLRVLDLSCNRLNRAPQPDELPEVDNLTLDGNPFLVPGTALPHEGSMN
Briefly: CD14 binding in flow cytometry, human whole blood (displacement of 18D11 from monocytes). The method, then: Fresh human or porcine whole blood was drawn into tubes containing the anticoagulants lepirudin (Refludan; Pharmion, Copenhagen, Denmark) or EDTA, respectively. Blood samples were preincubated for 10 min with Ab, #20 mg/ml anti-human CD14 Abs r18D11, 18D11 F(ab)92 (batch 2068, lot 1383), or isotype controls raNIP and mIgG1 F(ab)92 (lot 1501), or […] anti-porcine CD14 Abs rMil2, Mil2 (lot 1106), or the isotype controls 4770 RECOMBINANT ANTI-CD14 Abs Downloaded from University of Oslo, Library of Medicine and Health Science on Jan. 24, 2014 for IgG2/4 and mIgG2b, eculizumab (Soliris) and mIgG2b (lot 1631), respectively. […] Their binding was detected either by using a secondary PEconjugated anti-mouse IgG or through direct FITC fluorescence. […] In subsequent flow cytometry analyses, human monocyte and porcine granulocyte populations were selected based on the forward scatter-side scatter dot plot, and CD14 binding was recorded as mean or median fluorescence intensity, respectively. […] Fluorescence intensities in the presence of the fluorescently labeled Abs only were set to 100%. Flow cytometry analyses on human samples were performed using an LSRII and FACSDiva software version 5.0.3; porcine samples were analyzed on a FACSCalibur using Cell Quest Pro version 5.2.1 for data acquisition (all from BD Biosciences).

B1: OmCI: endotoxin-free recombinant bacterial OmCI (coversin), a 16.8-kDa protein, complement C5 inhibitor (protein, UniProt Q5YD59 19-168, looked up)
Complement inhibitor: DSESDCTGSEPVDAFQAFSEGKEAYVLVRSTDPKARDCLKGEPAGEKQDNTLPVMMTFKNGTDWASTDWTFTLDGAKVTATLGNLTQNREVVYDSQSHHCHVDKVEKEVPDYEMWMLDAGGLEVEVECCRQKLEELASGRNQMYPHLKDC
Regarding B1, in the series on porcine whole blood, the “IL-1b release (effect in words)” value is “not significantly reduced”, the “IL-8 release (effect in words)” value is reported as “significantly reduced to almost baseline” and the “TNF release (effect in words)” value is “significantly reduced”. For the same molecule, the “inhibition of complement activation” value with complement activation is “inhibit complement activation effectively”.

B2: F(ab)92 fragment of 18D11: F(ab)92 fragment of the murine anti-human CD14 clone 18D11 (Diatec) (antibody, V domains shown)
VH: EVQLVESGGGLMQPKGSLKLSCAASGFTFKTYALNWVRQAPGTGLEWVARIRSKSNNYTTYYADSVKDRFTISRDDSQNMLYLQMNNLKTEDTAMYYCVRPQSGTSFAYWGQGTLVTVSAA
VL: NIVLTQSPASLAVSLGQRATISCRASESVDSYGNSFMHWYQQKPGQPPKLLIYLASNLESGVPARFSGSGSRTDFTLTIDPVEADDVATYYCQQNNGDPYTFGGGTKLEIIR
As for B2, the complement activation result in the series with human whole blood [1] is given as “did not”.

B3: 18D11: mouse anti-human CD14 IgG1 clone 18D11 (Diatec), original murine clone (antibody, V domains shown)
VH: EVQLVESGGGLMQPKGSLKLSCAASGFTFKTYALNWVRQAPGTGLEWVARIRSKSNNYTTYYADSVKDRFTISRDDSQNMLYLQMNNLKTEDTAMYYCVRPQSGTSFAYWGQGTLVTVSAA
VL: NIVLTQSPASLAVSLGQRATISCRASESVDSYGNSFMHWYQQKPGQPPKLLIYLASNLESGVPARFSGSGSRTDFTLTIDPVEADDVATYYCQQNNGDPYTFGGGTKLEIIR
For B3, in the series with human whole blood [2], the “E. coli ultrapure LPS-induced release of IL-1b, TNF and IL-6” value was “inhibited”; the “Ab concentration at which maximum inhibitory effects were reached” value worked out at 10. Moreover, in the series on human whole blood [1], the monocyte oxidative burst result is on record as “significantly induced” and the complement activation result is “same low level of complement activation”.

B4: r18D11: recombinant anti-human CD14 mouse/human chimeric IgG2/4 Ab; VL SEQ ID NO:1, VH SEQ ID NO:2 (antibody, V domains shown)
VH: MGWSCIILFLVATATGVHSEVQLVESGGGLMQPKGSLKLSCAASGFTFKTYALNWVRQAPGTGLEWVARIRSKSNNYTTYYADSVKDRFTISRDDSQNMLYLQMNNLKTEDTAMYYCVRPQSGTSFAYWGQGTLVTVSAA
VL: MGWSCIILFLVATATGVHSNIVLTQSPASLAVSLGQRATISCRASESVDSYGNSFMHWYQQKPGQPPKLLIYLASNLESGVPARFSGSGSRTDFTLTIDPVEADDVATYYCQQNNGDPYTFGGGTKLEIIR
modifications: human IgG2/4 constant regions
B4: in the series with human CD14 (10 mg/ml r18D11 vs 10 mg/ml 18D11 (equimolar)), the “18D11 displaced from its binding sites on human monocytes” value was determined as 50%. Besides, the “binding to CD14 on human monocytes (competition with 18D11)” value with human CD14 (human whole blood) is on record as “dose-dependently outcompeted”. Also, in the series on human whole blood [2], the “E. coli ultrapure LPS-induced release of IL-1b, TNF and IL-6” value is “inhibited”; the “Ab concentration at which maximum inhibitory effects were reached” value was determined as 10. In addition, in the series with human whole blood [1], the monocyte oxidative burst result is “did not induce significant oxidative burst” and the complement activation entry is “same low level of complement activation”.
